Measurements reported in PMC12578638.

Experiments:
[1] = molecular target: hDPEP1-Avi (human DPEP1 residues 17-385) (human) (UniProt P16444); assay: BLI
[2] = molecular target: biotinylated pDPEP1-Avi (pig DPEP1 residues 17-385) (pig (Sus scrofa)) (UniProt P22412); assay: BLI
Chain of UniProt P22412 (P22412 17-385): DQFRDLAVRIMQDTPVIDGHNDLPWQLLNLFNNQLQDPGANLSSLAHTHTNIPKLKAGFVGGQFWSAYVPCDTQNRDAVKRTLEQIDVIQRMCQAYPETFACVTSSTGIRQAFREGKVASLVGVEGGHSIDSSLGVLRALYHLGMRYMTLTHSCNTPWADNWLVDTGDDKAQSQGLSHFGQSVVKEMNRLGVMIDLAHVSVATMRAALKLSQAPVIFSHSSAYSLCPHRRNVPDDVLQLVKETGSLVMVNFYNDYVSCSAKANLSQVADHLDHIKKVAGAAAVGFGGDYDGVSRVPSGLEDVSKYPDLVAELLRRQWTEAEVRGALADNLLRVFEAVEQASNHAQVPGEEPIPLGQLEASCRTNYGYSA

Chain of UniProt P16444 (P16444 17-385): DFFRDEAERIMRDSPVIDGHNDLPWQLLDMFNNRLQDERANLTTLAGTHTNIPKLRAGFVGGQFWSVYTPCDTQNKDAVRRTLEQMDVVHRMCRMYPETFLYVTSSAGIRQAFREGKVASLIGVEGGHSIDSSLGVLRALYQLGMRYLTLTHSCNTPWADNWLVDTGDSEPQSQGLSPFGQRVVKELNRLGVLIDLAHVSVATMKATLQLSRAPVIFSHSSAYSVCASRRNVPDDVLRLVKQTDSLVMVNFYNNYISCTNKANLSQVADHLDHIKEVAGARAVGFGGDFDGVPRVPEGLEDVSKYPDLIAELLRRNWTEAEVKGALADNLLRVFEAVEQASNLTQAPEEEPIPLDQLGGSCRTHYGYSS

PHEV spike RBD (residues 327-605), from Expi293F cells (domain or fragment)
Kd [1]: 2990 nM
Kd [2]: 1500 nM
